Reference: patent US10113152B1, “Variant polypeptides capable of aminating aliphatic alpha keto acids” (AbbVie Inc., priority 2014, dated 2018)

Test: Reductive amination of 2-oxonon-8-enoic acid to (S)-LCAA by leucine dehydrogenase (NADH consumption at 340 nm, HPLC of aliquots)
Type: biochemical
Settings: reaction described in Example 1, conversion of 2-oxonon-8-enoic acid to (S)-LCAA; for enzymatic activity (reaction rate) relative to wild-type B. cereus LDH: FIG. 5
Experimental: To produce (S)-LCAA from 2-oxonon-8-enoic acid, a reaction was performed under the following conditions. In 200 mL total volume and a buffered pH of 9.5, the aqueous reaction mixture contained 10 mM 2-oxonon-8-enoic acid, 12 mM glucose, 1 mM NAD^+, 50 mg of purified glucose dehydrogenase (GDH-105; Codexis, Redwood City, Calif.), 2 M NH4Cl/OH, and approximately 60 mL/L of purified leucine dehydrogenase cell-free extract. FIG. 2 depicts the reaction scheme for converting 2-oxonon-8-enoic acid to (S)-LCAA using leucine dehydrogenase. The mixture was incubated at 30° C. and with shaking at 150 rpm for four hours.
Enzyme activity was measured spectrophotometrically by monitoring the consumption of NADH in the reductive amination at 340 nm. Activity was defined as the number of micromoles of NADH consumed in 1 minute (μmol min^−1). Aliquots of the reaction mixture were obtained periodically during the course of the reaction and subjected to analysis by high performance liquid chromatography (HPLC).
To increase the affinity of LDH for the 2-oxonon-8-enoic acid substrate and, thus, enhance the enzyme's activity for producing (S)-LCAA, amino acid substitutions were made within the region of LDH that binds to the substrate. Specifically, amino acid substitutions were introduced at position 42 of B. cereus leucine dehydrogenase (SEQ ID NO:1) using standard mutagenesis techniques. Wild-type B. cereus LDH, along with 19 variants (one for each amino acid substitution at position 42) were expressed and isolated as described in Example 1. The enzymatic activity of the variant proteins was evaluated alongside wild-type B. cereus LDH in the reaction described in Example 1. […] While the disclosure is not bound by any particular theory or mechanism of action, the substitutions that increased the enzymatic activity of the LDH enzyme are believed to have increased the depth of the substrate binding pocket in LDH and thereby increased the affinity of LDH for the 2-oxonon-8-enoic acid substrate.

Molecule | enzymatic activity (reaction rate) relative to wild-type B. cereus LDH | increase in reaction rate relative to wild-type B. cereus LDH
L42I: variant B. cereus leucine dehydrogenase, leucine at position 42 substituted by isoleucine, SEQ ID NO:4 (protein) MTLEIFEYLEKYDYEQVVFCQDKESGLKAIIAIHDTTLGPAIGGTRMWTYDSEEAAIEDALRLAKGMTYKNAAAGLNLGGAKTVIIGDPRKDKSEAMFRALGRYIQGLNGRYITAEDVGTTVDDMDIIHEETDFVTGISPSFGSSGNPSPVTAYGVYRGMKAAAKEAFGTDNLEGKVIAVQGVGNVAYHLCKHLHAEGAKLIVTDINKEAVQRAVEEFGASAVEPNEIYGVECDIYAPCALGATVNDETIPQLKAKVIAGSANNQLKEDRHGDIIHEMGIVYAPDYVINAGGVINVADELYGYNRERALKRVESIYDTIAKVIEISKRDGIATYVAADRLAEERIASLKNSRSTYLRNGHDIISRR | significantly enhanced activity | –
L42Y: variant B. cereus leucine dehydrogenase (SEQ ID NO:1) with tyrosine at position 42 (protein, listed as Bacillus cereus) MTLEIFEYLEKYDYEQVVFCQDKESGLKAIIAIHDTTLGPAYGGTRMWTYDSEEAAIEDALRLAKGMTYKNAAAGLNLGGAKTVIIGDPRKDKSEAMFRALGRYIQGLNGRYITAEDVGTTVDDMDIIHEETDFVTGISPSFGSSGNPSPVTAYGVYRGMKAAAKEAFGTDNLEGKVIAVQGVGNVAYHLCKHLHAEGAKLIVTDINKEAVQRAVEEFGASAVEPNEIYGVECDIYAPCALGATVNDETIPQLKAKVIAGSANNQLKEDRHGDIIHEMGIVYAPDYVINAGGVINVADELYGYNRERALKRVESIYDTIAKVIEISKRDGIATYVAADRLAEERIASLKNSRSTYLRNGHDIISRR | reduced activity | –
L42T: variant B. cereus leucine dehydrogenase (SEQ ID NO:1) with threonine at position 42 (protein, listed as Bacillus cereus) MTLEIFEYLEKYDYEQVVFCQDKESGLKAIIAIHDTTLGPATGGTRMWTYDSEEAAIEDALRLAKGMTYKNAAAGLNLGGAKTVIIGDPRKDKSEAMFRALGRYIQGLNGRYITAEDVGTTVDDMDIIHEETDFVTGISPSFGSSGNPSPVTAYGVYRGMKAAAKEAFGTDNLEGKVIAVQGVGNVAYHLCKHLHAEGAKLIVTDINKEAVQRAVEEFGASAVEPNEIYGVECDIYAPCALGATVNDETIPQLKAKVIAGSANNQLKEDRHGDIIHEMGIVYAPDYVINAGGVINVADELYGYNRERALKRVESIYDTIAKVIEISKRDGIATYVAADRLAEERIASLKNSRSTYLRNGHDIISRR | enhanced activity | –
L42D: variant B. cereus leucine dehydrogenase (SEQ ID NO:1) with aspartic acid at position 42 (protein, listed as Bacillus cereus) MTLEIFEYLEKYDYEQVVFCQDKESGLKAIIAIHDTTLGPADGGTRMWTYDSEEAAIEDALRLAKGMTYKNAAAGLNLGGAKTVIIGDPRKDKSEAMFRALGRYIQGLNGRYITAEDVGTTVDDMDIIHEETDFVTGISPSFGSSGNPSPVTAYGVYRGMKAAAKEAFGTDNLEGKVIAVQGVGNVAYHLCKHLHAEGAKLIVTDINKEAVQRAVEEFGASAVEPNEIYGVECDIYAPCALGATVNDETIPQLKAKVIAGSANNQLKEDRHGDIIHEMGIVYAPDYVINAGGVINVADELYGYNRERALKRVESIYDTIAKVIEISKRDGIATYVAADRLAEERIASLKNSRSTYLRNGHDIISRR | reduced activity | –
L42K: variant B. cereus leucine dehydrogenase (SEQ ID NO:1) with lysine at position 42 (protein, listed as Bacillus cereus) MTLEIFEYLEKYDYEQVVFCQDKESGLKAIIAIHDTTLGPAKGGTRMWTYDSEEAAIEDALRLAKGMTYKNAAAGLNLGGAKTVIIGDPRKDKSEAMFRALGRYIQGLNGRYITAEDVGTTVDDMDIIHEETDFVTGISPSFGSSGNPSPVTAYGVYRGMKAAAKEAFGTDNLEGKVIAVQGVGNVAYHLCKHLHAEGAKLIVTDINKEAVQRAVEEFGASAVEPNEIYGVECDIYAPCALGATVNDETIPQLKAKVIAGSANNQLKEDRHGDIIHEMGIVYAPDYVINAGGVINVADELYGYNRERALKRVESIYDTIAKVIEISKRDGIATYVAADRLAEERIASLKNSRSTYLRNGHDIISRR | reduced activity | –
L42A: variant B. cereus leucine dehydrogenase, leucine at position 42 substituted by alanine, SEQ ID NO:20 (protein) MTLEIFEYLEKYDYEQVVFCQDKESGLKAIIAIHDTTLGPAAGGTRMWTYDSEEAAIEDALRLAKGMTYKNAAAGLNLGGAKTVIIGDPRKDKSEAMFRALGRYIQGLNGRYITAEDVGTTVDDMDIIHEETDFVTGISPSFGSSGNPSPVTAYGVYRGMKAAAKEAFGTDNLEGKVIAVQGVGNVAYHLCKHLHAEGAKLIVTDINKEAVQRAVEEFGASAVEPNEIYGVECDIYAPCALGATVNDETIPQLKAKVIAGSANNQLKEDRHGDIIHEMGIVYAPDYVINAGGVINVADELYGYNRERALKRVESIYDTIAKVIEISKRDGIATYVAADRLAEERIASLKNSRSTYLRNGHDIISRR | enhanced activity | –
L42S: variant B. cereus leucine dehydrogenase (SEQ ID NO:1) with serine at position 42 (protein, listed as Bacillus cereus) MTLEIFEYLEKYDYEQVVFCQDKESGLKAIIAIHDTTLGPASGGTRMWTYDSEEAAIEDALRLAKGMTYKNAAAGLNLGGAKTVIIGDPRKDKSEAMFRALGRYIQGLNGRYITAEDVGTTVDDMDIIHEETDFVTGISPSFGSSGNPSPVTAYGVYRGMKAAAKEAFGTDNLEGKVIAVQGVGNVAYHLCKHLHAEGAKLIVTDINKEAVQRAVEEFGASAVEPNEIYGVECDIYAPCALGATVNDETIPQLKAKVIAGSANNQLKEDRHGDIIHEMGIVYAPDYVINAGGVINVADELYGYNRERALKRVESIYDTIAKVIEISKRDGIATYVAADRLAEERIASLKNSRSTYLRNGHDIISRR | enhanced activity | –
L42V: variant B. cereus leucine dehydrogenase, leucine at position 42 substituted by valine, SEQ ID NO:5 (protein) MTLEIFEYLEKYDYEQVVFCQDKESGLKAIIAIHDTTLGPAVGGTRMWTYDSEEAAIEDALRLAKGMTYKNAAAGLNLGGAKTVIIGDPRKDKSEAMFRALGRYIQGLNGRYITAEDVGTTVDDMDIIHEETDFVTGISPSFGSSGNPSPVTAYGVYRGMKAAAKEAFGTDNLEGKVIAVQGVGNVAYHLCKHLHAEGAKLIVTDINKEAVQRAVEEFGASAVEPNEIYGVECDIYAPCALGATVNDETIPQLKAKVIAGSANNQLKEDRHGDIIHEMGIVYAPDYVINAGGVINVADELYGYNRERALKRVESIYDTIAKVIEISKRDGIATYVAADRLAEERIASLKNSRSTYLRNGHDIISRR | significantly enhanced activity | approximately 1×10^3
L42G: variant B. cereus leucine dehydrogenase, leucine at position 42 substituted by glycine, SEQ ID NO:6 (protein) MTLEIFEYLEKYDYEQVVFCQDKESGLKAIIAIHDTTLGPAGGGTRMWTYDSEEAAIEDALRLAKGMTYKNAAAGLNLGGAKTVIIGDPRKDKSEAMFRALGRYIQGLNGRYITAEDVGTTVDDMDIIHEETDFVTGISPSFGSSGNPSPVTAYGVYRGMKAAAKEAFGTDNLEGKVIAVQGVGNVAYHLCKHLHAEGAKLIVTDINKEAVQRAVEEFGASAVEPNEIYGVECDIYAPCALGATVNDETIPQLKAKVIAGSANNQLKEDRHGDIIHEMGIVYAPDYVINAGGVINVADELYGYNRERALKRVESIYDTIAKVIEISKRDGIATYVAADRLAEERIASLKNSRSTYLRNGHDIISRR | significantly enhanced activity | approximately 1×10^3
L42H: variant B. cereus leucine dehydrogenase (SEQ ID NO:1) with histidine at position 42 (protein, listed as Bacillus cereus) MTLEIFEYLEKYDYEQVVFCQDKESGLKAIIAIHDTTLGPAHGGTRMWTYDSEEAAIEDALRLAKGMTYKNAAAGLNLGGAKTVIIGDPRKDKSEAMFRALGRYIQGLNGRYITAEDVGTTVDDMDIIHEETDFVTGISPSFGSSGNPSPVTAYGVYRGMKAAAKEAFGTDNLEGKVIAVQGVGNVAYHLCKHLHAEGAKLIVTDINKEAVQRAVEEFGASAVEPNEIYGVECDIYAPCALGATVNDETIPQLKAKVIAGSANNQLKEDRHGDIIHEMGIVYAPDYVINAGGVINVADELYGYNRERALKRVESIYDTIAKVIEISKRDGIATYVAADRLAEERIASLKNSRSTYLRNGHDIISRR | reduced activity | –
